# Experimental data from the supplement of paper PMC12042874.
# ± gives the uncertainty stated by the source.
# Test: amyloid nucleation score (Sup35N fusion, yeast selection) (log enrichment); library NNK2; higher = more nucleation; inactive = no reads after selection
# Method in brief: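 On medium lacking adenine and uracil, psi-negative yeast expressing peptides of 20 random codons fused to Sup35N were grown 7 days at 30°C after a 24-hour induction with 100 μM copper sulfate. Illumina sequencing of input and output plasmid inserts gave the reads, and sequences under 100 input reads were excluded. The nucleation score is the DiMSum log enrichment of output over input reads, centred on the mode score of non-aggregating sequences.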
row,Substance,amyloid nucleation score
1,IYYDVFSVSCTFVKLGWIFL,1.96 ± 0.077
2,IYYNGFVQCGLLIEGLITSY,2.39 ± 0.092
3,KAANVAEDSR,0.978 ± 0.47
4,KARLIAITHLPRYYWSFGVL,0.388 ± 0.62
5,KASHSVTRSLSVAYI,-0.714 ± 0.38
6,KAYLH,-0.427 ± 0.78
7,KCMRFIL,-0.087 ± 1
8,KCPRVPNLVS,0.407 ± 0.43
9,KCRHFCRCETCTRYDPVHIL,1 ± 0.53
10,KCRISAMICDKAIFRVKRAC,1.13 ± 0.4
11,KCVGYW,0.811 ± 0.57
12,KCVRTTVLHNRRVPDGLTMP,0.678 ± 0.33
13,KCWNRYKHSDDIYGVGFPSI,-1.09 ± 1
14,KDFVG,2.62 ± 0.11
15,KDKGKNDRAIAWVLWGICVL,0.51 ± 0.51
16,KDKGVCSQLYRDLVWRDEVF,-0.035 ± 0.31
17,KDTRVVYVPSFYLWNLDAVK,-0.551 ± 0.61
18,KDVTVNIRWTLIQLLYHTNF,4.08 ± 0.11
19,KDYPLAGSLVTKL,0.317 ± 0.62
20,KECRYID,inactive
21,KEHGMESRPSWLTFSIYLVG,0.428 ± 0.56
22,KFHGSVNGMFPAREITRDLR,0.316 ± 0.23
23,KFKFKESGFEVVSLGGMVTP,inactive
24,KFLHKQVFNFHVSGMNPMAS,5.75 ± 0.069
25,KFRCASWLCRSTKAWRRCGA,4.75 ± 0.049

row,Substance,amyloid nucleation score
1,KFRCHGR,0.785 ± 0.62
2,KFRMDGGFILNVVHKQHNMV,0.023 ± 0.8
3,KFWDLC,0.047 ± 0.45
4,KGFEIFSSFTLYV,-0.684 ± 0.55
5,KGFNKY,-0.911 ± 0.43
6,KGKDS,-0.037 ± 0.39
7,KGNAVVSWDRS,2.36 ± 0.1
8,KGRGCRFLMLYYRVYMFRGS,0.471 ± 0.5
9,KGRYSGEGEIAFLQRVVGSG,0.434 ± 0.41
10,KGSEPLYGLCIIMV,0.851 ± 0.8
11,KHIFFLREVVNYFMRRTKGL,-0.507 ± 0.64
12,KHRWII,-0.287 ± 0.3
13,KHSRMYLR,1.49 ± 0.17
14,KIDSICRYRGPINQLNINPF,0.417 ± 0.4
15,KIFFKNDGAGSVWPSNKLYF,-1.29 ± 1
16,KIISNSFCSPCINSILPSKM,6.826 ± 0.053
17,KILDWRGWSRGSGPLTSSTW,1.04 ± 0.38
18,KIRTNALYLL,-0.298 ± 0.29
19,KITRWLCYIFTTLL,-1.7 ± 1.1
20,KIVGCGHSRMLIMTWC,0.733 ± 0.56
21,KKERPNMSWGDHY,-0.78 ± 1
22,KKEVHLSRVYITETYVVGEG,-0.052 ± 0.63
23,KKVRNC,0.436 ± 0.8
24,KLCKF,3.27 ± 0.073
25,KLGRCRRKFMLYGCNLVQSR,-0.133 ± 0.33

row,Substance,amyloid nucleation score
1,KLGTLLSFPTVINVANMIQI,3.8 ± 0.081
2,KLMYLKLK,-0.038 ± 1.1
3,KLPAVNLVVMREWKALRFGV,-0.48 ± 0.33
4,KLPLFTSMCCTGHFPPITPP,0.409 ± 0.8
5,KLQSCCIF,6.23 ± 0.084
6,KLRVFPLKESVSQGALQTVG,-0.476 ± 0.44
7,KLVGMPFSSVACNSFKHRSE,0.408 ± 0.16
8,KLVTYVPSNKTNCHDDDGTY,-0.678 ± 0.56
9,KLYFCYLEI,-1.25 ± 1.1
10,KMAIGLCVSTLQ,0.333 ± 0.42
11,KMDTRSRLKQWKRFFIHIPK,-0.92 ± 0.49
12,KMLCYMYVVTHNVTLRHRLY,0.196 ± 0.42
13,KMLSWP,-0.412 ± 1.1
14,KNDLRSSGWTAGSGISLEEG,-0.365 ± 0.76
15,KNSGSMIRWIFIRGSTTIEK,inactive
16,KPIVITLLLSDCVRM,9.498 ± 0.026
17,KRAMPLSLTSRRLWISSGTG,-0.708 ± 1.1
18,KRHMVSS,1.72 ± 0.42
19,KRKFRMWSQNIFLKVGNILA,-1.47 ± 0.55
20,KRKKQKFAMLYVSGNLLRRD,0.234 ± 0.28
21,KRNLVCAISFLDSRSCRRTA,0.119 ± 0.24
22,KRNRQMSFRMVSLTRNTSPH,0.792 ± 0.53
23,KRSCDQVCLLSRLIGQAGEW,2.26 ± 0.1
24,KRVFKLSESTTRVIMWGRYS,inactive
25,KRYLWTGN,-0.534 ± 0.35

row,Substance,amyloid nucleation score
1,KSCDIL,-0.335 ± 0.79
2,KSCSEV,-0.047 ± 0.35
3,KSDQLGCRLVDRGNCFSNRL,inactive
4,KSEKTHRIAMLNMSLVSYMR,3.97 ± 0.053
5,KSNLCLNVHGSLGICPTHDL,0.178 ± 0.37
6,KSPFVICGKRDVRK,-1.28 ± 1.1
7,KSPPFMGSAERVSRRNGRGL,-0.417 ± 0.36
8,KSQLYNYAVSM,-1.59 ± 0.64
9,KSQVPPNFWVVMCLTEFSVV,5.628 ± 0.046
10,KSRISMPPSVLLDYGLAHNA,-0.598 ± 0.63
11,KSSEHRGCLICTIIAVDL,6.977 ± 0.039
12,KSTLANHFTVLIGDTADLHG,inactive
13,KSVGVQALMLAKGIYFSING,1.53 ± 0.28
14,KSVTVGADHNVDVGVAEMIR,1.79 ± 0.32
15,KTCRFLCA,0.176 ± 0.64
16,KTCSACVSIKICLLNDGGNW,9.63 ± 0.052
17,KTCSDMWYAVRHSNHETSV,1.34 ± 0.52
18,KTLKNEFVDMNQMIYNY,-0.489 ± 0.79
19,KVFSNIVMLLSVRLCCLMKI,-1.58 ± 1.1
20,KVGERISPELSGMFYGTLWY,-0.305 ± 0.74
21,KVIPVALNTRIAWGTHRLMM,0.958 ± 0.27
22,KVMIVNRVIYTNRFNQGLTM,7.705 ± 0.051
23,KVSYMFLVTLSYGSWFPSSM,-0.545 ± 0.45
24,KWDHPKEVFCSVRTSGRGVE,2.04 ± 0.072
25,KWFNVCIWKCAWLYIDGVGC,3.95 ± 0.066

row,Substance,amyloid nucleation score
1,KWGRCSIGT,inactive
2,KWKLMCDAFLS,-0.969 ± 0.48
3,KWRDRNDINNFRQGLLCSVN,3.03 ± 0.14
4,KWSYSPVGKHYLYMMWDGHS,0.409 ± 0.3
5,KWYFRSWRLMLYSVKFSFRI,-0.693 ± 0.55
6,KYRYRLVQR,-0.656 ± 1.1
7,KYTVSLVDLGCFQSKGCDST,inactive
8,KYVGWQYLSSCILGVFPLAG,0.151 ± 0.32
9,KYVIR,-0.606 ± 1.1
10,KYVWSVEGKVAVAGVAMSCA,0.025 ± 1.1
11,KYYRQSCQDRPILFDVALYY,inactive
12,LAFDK,inactive
13,LAGRC,0.968 ± 0.56
14,LALKGLLFSHNGKLEKGQV,-0.17 ± 0.79
15,LALMFLYAALFHAAR,7.139 ± 0.058
16,LALNLQNCTRGGFTILTVS,inactive
17,LAMYLWCTELP,-0.057 ± 0.63
18,LARFSDMDKMKGSVGFWALK,-0.014 ± 0.62
19,LASSKEACVHTVMAIVSVGA,2.08 ± 0.12
20,LASYLRFSISSVIFNTRAIL,-0.315 ± 0.54
21,LATKTLSMSLESICRNTVAF,inactive
22,LAWWFY,-0.325 ± 0.76
23,LCARALLH,0.905 ± 0.32
24,LCDIIQAF,-0.626 ± 1.1
25,LCGMLYAAAGHWFSVMPPGD,0.997 ± 0.32

row,Substance,amyloid nucleation score
1,LCIIWVVRFYALWWSEPMGW,1.14 ± 0.18
2,LCILVFRGASRSLFSGGVFT,-0.199 ± 0.76
3,LCIPSVTTDS,inactive
4,LCLRDFSFDGLVGSR,0.119 ± 0.65
5,LCMCLRNMLSPAMVVTSNPP,0.737 ± 0.2
6,LCMRTFGLHHCPGYG,1.2 ± 0.37
7,LCRIDRVWQLGYRWLYQDVV,4.34 ± 0.084
8,LCRYFQN,0.218 ± 0.8
9,LCSTHVMKLWFYVSFLLF,-0.397 ± 0.78
10,LCTTNSLF,-0.671 ± 0.38
11,LCWSYCRVKCGHMFVGVRGS,0.58 ± 0.56
12,LDATNSKNVYRMPAWKGNMR,0.564 ± 0.32
13,LDILIYLKILDISFGNESCM,0.002 ± 0.17
14,LDISSDPFFSS,-1.25 ± 1.1
15,LDLGAPPWH,1.03 ± 0.36
16,LDNYCFHAASYSQHNSSTGP,0.804 ± 0.46
17,LDPNSYHKSRWFNMMSFIRV,0.611 ± 0.81
18,LDYLGETNLLVRWHLAVTAS,0.626 ± 0.16
19,LEAISCKWYTLYVVYSCNSW,-0.877 ± 1
20,LECNDA,0.322 ± 0.51
21,LELVCRPISMSGWSGYHTCR,0.983 ± 0.41
22,LEVLVLDVYSYVSLHVGTFV,0.051 ± 0.35
23,LEVYVLFTVTYAVMRMNMDG,0.302 ± 0.56
24,LEYFITTSGSSSKVLHGFTM,-0.986 ± 1.1
25,LFAYYGWVFYMSIRCVHMGM,-0.583 ± 1.1

row,Substance,amyloid nucleation score
1,LFDGARINTVNECVYWNS,inactive
2,LFDGRNYF,-0.669 ± 0.46
3,LFDSLPDYITTYYNNDAQQG,-1.85 ± 1
4,LFDVADIDA,0.736 ± 0.74
5,LFESMPGCDDSNELIFWGIA,-0.722 ± 0.28
6,LFGGRGKRVRLKVLLTQRF,-0.37 ± 0.32
7,LFGHRFPSYL,-0.152 ± 1
8,LFGNWSFVVNRCVVSLKLM,inactive
9,LFIDLEMLFSPRN,5.471 ± 0.048
10,LFIICNSVVHMDLASVGNVS,8.409 ± 0.043
11,LFIYYWYLLFYGSPYIWLPV,-0.363 ± 1.1
12,LFLCYFIRT,2.17 ± 0.1
13,LFMKRER,-0.179 ± 0.76
14,LFMLYCFHLQDMKRVQICVH,0.188 ± 0.19
15,LFNAVGLATV,0.33 ± 0.74
16,LFSALFGRW,4.26 ± 0.05
17,LFSTYRNFIFVIHSADMCKS,-0.558 ± 1
18,LFTVLKTVWANNNTYDSKQK,-1.23 ± 0.78
19,LFTVWVASVVWSCADVA,-1.34 ± 0.78
20,LFVLVREVNVLTFLCPSEDQ,8.52 ± 0.066
21,LGDRCNS,2.36 ± 0.11
22,LGFHWIRNGGGLVTVNLVCV,0.747 ± 0.27
23,LGFMNCSLMHAGRVGPREHF,2.72 ± 0.13
24,LGHTH,1.06 ± 0.53
25,LGIVVVHWTPIIAGW,-1.11 ± 0.56
